Test results: patent CN101228187A

Assays:
[1] = target: T1, FRHSVV peptide, common epitope of mutant p53 (biotinylated) (human); assay: BIAcore (SPR), biotinylated peptide on streptavidin SA chip, scFv injected, 1:1 Langmuir model
[2] = target: T1, FRHSVV peptide, common epitope of …; assay: BIAcore (SPR), data not shown

Binder | Kd [1] | Kd [2]
F2 scFv (scFv) scFv: VQLLESGGGLVQPGGSLRLSCAASGFTFSGYWMHWVRQAPGKGLEWVSEISGSGDSTHYGDSVKGRFTISRDNSKNTLYLQMNSLRAEDTAVYYCARGRNGSLDYWGQGTLVTVSSGSAGGGGSGGGGSGGGGSDIVLTQPPSASGTPGQRVTISCSGTSSNIGADYDVHWYQQLPGKAPKLLIYDNNKRPSGVSDRFSGSKSGTSASLAISGLRSEDEADYYCAAWDSSLSSVVFGGGTQLTV | 11 nM | 
A6 scFv (scFv) scFv: VQLLESGGGLVQPGGSPRLSCAASGFTFSGYWMHWVRQAPGKGLEWVSEISGSGDSTHYGDSVKGRFTISRDNSKNTLYLQMNSLRAEDTAVYYCARGRNGSLDYWGQGTLVTVSSGSAGGGGSGGGGSGGGGSDIVLTQPPSASGTPGQRVTISCTGGRFNIGDYAVNWYQQLPGKAPKLLIYDNDRRPSGVSDRFSGSKSGTSASLAISGLRSEDEADYYCAAWDDSLDGLVFGGGTQLTV |  | 23 nM
